Experimental data reported in US6342348 (GENETECH, dated 2002).

Target: T1, recombinant soluble rat GDNFRα (rat, UniProt Q62997 25-427, limits assumed)
T1 construct: also called rGDNFRα; GFR-alpha-1
T1 sequence (looked up): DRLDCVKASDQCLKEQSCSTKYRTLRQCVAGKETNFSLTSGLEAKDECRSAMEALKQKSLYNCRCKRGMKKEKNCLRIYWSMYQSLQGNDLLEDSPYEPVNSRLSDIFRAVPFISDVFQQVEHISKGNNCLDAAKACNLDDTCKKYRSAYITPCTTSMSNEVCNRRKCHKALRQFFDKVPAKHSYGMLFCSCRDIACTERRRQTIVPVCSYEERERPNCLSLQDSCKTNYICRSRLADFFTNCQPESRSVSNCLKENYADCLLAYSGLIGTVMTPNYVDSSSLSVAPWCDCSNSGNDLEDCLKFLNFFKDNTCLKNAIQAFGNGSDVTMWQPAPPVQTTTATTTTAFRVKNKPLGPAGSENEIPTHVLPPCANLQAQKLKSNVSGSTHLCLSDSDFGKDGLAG
Test: equilibrium competition binding of ^125I-rGDNF to recombinant soluble rGDNFRα, Scatchard

Kd: 3 pM
B1: rat GDNF (ligand, UniProt Q07731 78-211, looked up)
chain: SPDKQAAALPRRERNRQAAAASPENSRGKGRRGQRGKNRGCVLTAIHLNVTDLGLGYETKEELIFRYCSGSCEAAETMYDKILKNLSRSRRLTSDKVGQACCRPVAFDDDLSFLDDSLVYHILRKHSAKRCGCI
modifications: ^125I label (iodinated either on tyrosine by the Bolton Hunter method or on lysine using lactoperoxidase)
notes: also called rGDNF; RGDNF
